# *1 amine or outer side, *2 acyl side, *3 side chain or, on linkers, in order; H or OH if unused. Bridges are numbered along the chain shown (N, C = ends). Primed or numbered codes have the meaning given here. Where no end group is shown, it is not given here. Side-chain parts run from the residue outwards. [ ]: non-standard residue; d: D form. The star is where a group is joined. dpeg″ = spacer —[CO(CH2)O(CH2)2O(CH2)NH]—, O=C(COCCOCN[*:1])[*:2]; dpeg = —[CO(CH2)O(CH2)2O(CH2)NH]— spacer, O=C(COCCOCN[*:1])[*:2]; C20 diacid = O=C(O)CCCCCCCCCCCCCCCCCCC(=O)*; γGlu = O=C(O)[C@H](CCC(=O)[*:2])N[*:1]; NMeE = CN[C@@H](CCC(=O)O)C(=O)O; Aib = CC(C)(N)C(=O)O
# B1: Compound A14 (peptide)
# peptide: YSHGTFTSDYSKYLD[Aib]KYAQK([γGlu-γGlu-C20 diacid])FV[Aib]WLEDEPSSGAPPPS-OH
# modifications: N-terminus assumed
# SMILES: CC(C)C[C@H](NC(=O)[C@H](Cc1ccc(O)cc1)NC(=O)[C@H](CCCCN)NC(=O)[C@H](CO)NC(=O)[C@H](Cc1ccc(O)cc1)NC(=O)[C@H](CC(=O)O)NC(=O)[C@H](CO)NC(=O)[C@@H](NC(=O)[C@H](Cc1ccccc1)NC(=O)[C@@H](NC(=O)CNC(=O)[C@H](Cc1c[nH]cn1)NC(=O)[C@H](CO)NC(=O)[C@@H](N)Cc1ccc(O)cc1)[C@@H](C)O)[C@@H](C)O)C(=O)N[C@@H](CC(=O)O)C(=O)NC(C)(C)C(=O)N[C@@H](CCCCN)C(=O)N[C@@H](Cc1ccc(O)cc1)C(=O)N[C@@H](C)C(=O)N[C@@H](CCC(N)=O)C(=O)N[C@@H](CCCCNC(=O)CC[C@H](NC(=O)CC[C@H](NC(=O)CCCCCCCCCCCCCCCCCCC(=O)O)C(=O)O)C(=O)O)C(=O)N[C@@H](Cc1ccccc1)C(=O)N[C@H](C(=O)NC(C)(C)C(=O)N[C@@H](Cc1c[nH]c2ccccc12)C(=O)N[C@@H](CC(C)C)C(=O)N[C@@H](CCC(=O)O)C(=O)N[C@@H](CC(=O)O)C(=O)N[C@@H](CCC(=O)O)C(=O)N1CCC[C@H]1C(=O)N[C@@H](CO)C(=O)N[C@@H](CO)C(=O)NCC(=O)N[C@@H](C)C(=O)N1CCC[C@H]1C(=O)N1CCC[C@H]1C(=O)N1CCC[C@H]1C(=O)N[C@@H](CO)C(=O)O)C(C)C
# B2: Compound A13 (peptide)
# peptide: YSHGTFTSDYSKYLDK([γGlu-γGlu-C20 diacid])KYAQEFV[Aib]WLEDEPSSGAPPPS-OH
# modifications: N-terminus assumed
# SMILES: CC(C)C[C@H](NC(=O)[C@H](Cc1ccc(O)cc1)NC(=O)[C@H](CCCCN)NC(=O)[C@H](CO)NC(=O)[C@H](Cc1ccc(O)cc1)NC(=O)[C@H](CC(=O)O)NC(=O)[C@H](CO)NC(=O)[C@@H](NC(=O)[C@H](Cc1ccccc1)NC(=O)[C@@H](NC(=O)CNC(=O)[C@H](Cc1c[nH]cn1)NC(=O)[C@H](CO)NC(=O)[C@@H](N)Cc1ccc(O)cc1)[C@@H](C)O)[C@@H](C)O)C(=O)N[C@@H](CC(=O)O)C(=O)N[C@@H](CCCCNC(=O)CC[C@H](NC(=O)CC[C@H](NC(=O)CCCCCCCCCCCCCCCCCCC(=O)O)C(=O)O)C(=O)O)C(=O)N[C@@H](CCCCN)C(=O)N[C@@H](Cc1ccc(O)cc1)C(=O)N[C@@H](C)C(=O)N[C@@H](CCC(N)=O)C(=O)N[C@@H](CCC(=O)O)C(=O)N[C@@H](Cc1ccccc1)C(=O)N[C@H](C(=O)NC(C)(C)C(=O)N[C@@H](Cc1c[nH]c2ccccc12)C(=O)N[C@@H](CC(C)C)C(=O)N[C@@H](CCC(=O)O)C(=O)N[C@@H](CC(=O)O)C(=O)N[C@@H](CCC(=O)O)C(=O)N1CCC[C@H]1C(=O)N[C@@H](CO)C(=O)N[C@@H](CO)C(=O)NCC(=O)N[C@@H](C)C(=O)N1CCC[C@H]1C(=O)N1CCC[C@H]1C(=O)N1CCC[C@H]1C(=O)N[C@@H](CO)C(=O)O)C(C)C
# B3: Compound A29 (peptide)
# peptide: YSHGTFTSDYSKYLD[Aib]KYAQK([γGlu-γGlu-dpeg″-C20 diacid])FVKWLEEEPSSGAPPPS-OH
# modifications: lactam 24-28; N-terminus assumed
# SMILES: CC(C)C[C@@H]1NC(=O)[C@H](Cc2c[nH]c3ccccc23)NC(=O)[C@@H](NC(=O)[C@@H](NC(=O)[C@H](Cc2ccccc2)NC(=O)[C@H](CCCCNC(=O)CC[C@H](NC(=O)CC[C@H](NC(=O)COCCOCNC(=O)CCCCCCCCCCCCCCCCCCC(=O)O)C(=O)O)C(=O)O)NC(=O)[C@H](CCC(N)=O)NC(=O)[C@H](C)NC(=O)[C@H](Cc2ccc(O)cc2)NC(=O)[C@H](CCCCN)NC(=O)C(C)(C)NC(=O)[C@H](CC(=O)O)NC(=O)[C@H](CC(C)C)NC(=O)[C@H](Cc2ccc(O)cc2)NC(=O)[C@H](CCCCN)NC(=O)[C@H](CO)NC(=O)[C@H](Cc2ccc(O)cc2)NC(=O)[C@H](CC(=O)O)NC(=O)[C@H](CO)NC(=O)[C@@H](NC(=O)[C@H](Cc2ccccc2)NC(=O)[C@@H](NC(=O)CNC(=O)[C@H](Cc2c[nH]cn2)NC(=O)[C@H](CO)NC(=O)[C@@H](N)Cc2ccc(O)cc2)[C@@H](C)O)[C@@H](C)O)C(C)C)CCCCNC(=O)CC[C@@H](C(=O)N[C@@H](CCC(=O)O)C(=O)N2CCC[C@H]2C(=O)N[C@@H](CO)C(=O)N[C@@H](CO)C(=O)NCC(=O)N[C@@H](C)C(=O)N2CCC[C@H]2C(=O)N2CCC[C@H]2C(=O)N2CCC[C@H]2C(=O)N[C@@H](CO)C(=O)O)NC(=O)[C@H](CCC(=O)O)NC1=O
# Biological target: human Glucagon receptor (GCGR) (human, UniProt P47871 26-477)
# Assay: cell-based or functional assay
row,Binder,"pEC50, cAMP accumulation"
1,YSHGTFTSDYSKYLDK([γGlu-γGlu-dpeg″-C20 diacid])KYAEKFVKWLEEEPSSGAPPPS-OH (lactam 20-24) [Compound A25],11.9 pEC50 (-log M)
2,YSHGTFTSDYSKYLDK([γGlu-γGlu-dpeg-C20 diacid])KYASEFV[Aib]WLESEPSSGAPPPS-OH [Compound A24],12.5 pEC50 (-log M)
3,YSHGTFTSDYSKYLDK([γGlu-γGlu-dpeg″-C20 diacid])KYAEKFVKWLEDEPSSGAPPPS-OH (lactam 20-24) [Compound A21],12.1 pEC50 (-log M)
4,YSHGTFTSDYSKYLDK([γGlu-γGlu-dpeg-C20 diacid])KYAQEFV[Aib]WLEEEPSSGAPPPS-OH [Compound A15],12.1 pEC50 (-log M)
5,YSHGTFTSDYSKYLDK([γGlu-γGlu-dpeg-C20 diacid])KYAQEFV[Aib]WLENEPSSGAPPPS-OH [Compound A16],12.2 pEC50 (-log M)
6,YSHGTFTSDYSKYLDK([γGlu-γGlu-dpeg-C20 diacid])KYAEEFV[Aib]WLESEPSSGAPPPS-OH [Compound A23],11.5 pEC50 (-log M)
7,B1,11.2 pEC50 (-log M)
8,YSHGTFTSDYSKYLD[Aib]KYAK([γGlu-γGlu-dpeg-C20 diacid])EFV[Aib]WLEDEPSSGAPPPS-OH [Compound A5],11.6 pEC50 (-log M)
9,YSHGTFTSDYSKYLDK([γGlu-γGlu-dpeg-C20 diacid])KYAQEFV[Aib]WLEDEPSSGAPPPS-OH [Compound A2],12.5 pEC50 (-log M)
10,YSHGTFTSDYSKYLD[Aib]KK([γGlu-γGlu-dpeg-C20 diacid])AQEFV[Aib]WLEDEPSSGAPPPS-OH [Compound A4],11.7 pEC50 (-log M)
11,YSHGTFTSDYSKYLDK([γGlu-γGlu-dpeg″-C20 diacid])KYAEEFVKWLEDEPSSGAPPPS-OH (lactam 20-24) [Compound A12],11.8 pEC50 (-log M)
12,YSHGTFTSDYSKYLK([γGlu-γGlu-dpeg-C20 diacid])[Aib]KYAQEFV[Aib]WLEDEPSSGAPPPS-OH [Compound A1],11.5 pEC50 (-log M)
13,YSHGTFTSDYSKYLDK([γGlu-γGlu-dpeg-C20 diacid])KYAQEF[Aib]SWLEDEPSSGAPPPS-OH [Compound A10],10.4 pEC50 (-log M)
14,YSHGTFTSDYSKYLDK([γGlu-γGlu-dpeg″-C20 diacid])KYAKEFVEWLEDEPSSGAPPPS-OH (lactam 20-24) [Compound A11],11.7 pEC50 (-log M)
15,YSHGTFTSDYSKYLDK([γGlu-γGlu-dpeg-C20 diacid])KYAQEFV[Aib]WLEQEPSSGAPPPS-OH [Compound A17],12.1 pEC50 (-log M)
16,YSHGTFTSDYSKYLDK([γGlu-γGlu-dpeg-C20 diacid])KYAQEFV[Aib]WLESEPSSGAPPPS-OH [Compound A19],12.1 pEC50 (-log M)
17,B2,12 pEC50 (-log M)
18,YSHGTFTSDYSKYLDK([γGlu-γGlu-dpeg-C20 diacid])KYAQEF[Aib]EWLEDEPSSGAPPPS-OH [Compound A8],9.9 pEC50 (-log M)
19,YSHGTFTSDYSKYLD[Aib]K([γGlu-γGlu-dpeg-C20 diacid])YAQEFV[Aib]WLEDEPSSGAPPPS-OH [Compound A3],12.5 pEC50 (-log M)
20,YSHGTFTSDYSKYLDK([γGlu-γGlu-dpeg-C20 diacid])KYAQEF[Aib]KWLEDEPSSGAPPPS-OH [Compound A9],10.6 pEC50 (-log M)
21,YSHGTFTSDYSKYLDK([γGlu-γGlu-dpeg-C20 diacid])KYAQEFV[Aib]WLEKEPSSGAPPPS-OH [Compound A20],12.1 pEC50 (-log M)
22,YSHGTFTSDYSKYLDK([γGlu-γGlu-dpeg-C20 diacid])KYAQEFV[Aib]WLE[NMeE]EPSSGAPPPS-OH [Compound A18],10.4 pEC50 (-log M)
23,YSHGTFTSDYSKYLDK([γGlu-γGlu-dpeg-C20 diacid])KYAKEFV[Aib]WLESEPSSGAPPPS-OH [Compound A22],11.7 pEC50 (-log M)

# Biological target: human GLP-1 receptor (GLP-1R) (human, UniProt P43220 24-463)
# Sequence (P43220 24-463): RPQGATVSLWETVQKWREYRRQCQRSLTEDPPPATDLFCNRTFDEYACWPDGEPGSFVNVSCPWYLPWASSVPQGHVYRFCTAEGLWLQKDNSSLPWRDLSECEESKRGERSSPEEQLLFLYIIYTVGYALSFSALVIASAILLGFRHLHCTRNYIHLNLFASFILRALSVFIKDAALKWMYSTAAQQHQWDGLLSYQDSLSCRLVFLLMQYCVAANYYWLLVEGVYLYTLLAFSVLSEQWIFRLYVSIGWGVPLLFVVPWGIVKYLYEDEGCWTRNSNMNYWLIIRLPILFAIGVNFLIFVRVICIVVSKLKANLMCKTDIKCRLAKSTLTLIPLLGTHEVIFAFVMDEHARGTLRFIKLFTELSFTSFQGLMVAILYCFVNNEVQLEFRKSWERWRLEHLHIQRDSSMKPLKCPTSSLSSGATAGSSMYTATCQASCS
# Assay: cell-based or functional assay
row,Binder,"pEC50, cAMP accumulation"
1,YSHGTFTSDYSKYLDK([γGlu-γGlu-dpeg″-C20 diacid])KYAEKFVKWLEEEPSSGAPPPS-OH (lactam 20-24) [Compound A25],< 9 pEC50 (-log M)
2,YSHGTFTSDYSKYLDK([γGlu-γGlu-dpeg-C20 diacid])KYASEFV[Aib]WLESEPSSGAPPPS-OH [Compound A24],< 9 pEC50 (-log M)
3,YSHGTFTSDYSKYLDK([γGlu-γGlu-dpeg″-C20 diacid])KYAEKFVKWLEDEPSSGAPPPS-OH (lactam 20-24) [Compound A21],< 9 pEC50 (-log M)
4,YSHGTFTSDYSKYLDK([γGlu-γGlu-dpeg-C20 diacid])KYAQEFV[Aib]WLEEEPSSGAPPPS-OH [Compound A15],< 9 pEC50 (-log M)
5,YSHGTFTSDYSKYLDK([γGlu-γGlu-dpeg-C20 diacid])KYAQEFV[Aib]WLENEPSSGAPPPS-OH [Compound A16],< 9 pEC50 (-log M)
6,YSHGTFTSDYSKYLDK([γGlu-γGlu-dpeg-C20 diacid])KYAEEFV[Aib]WLESEPSSGAPPPS-OH [Compound A23],< 9 pEC50 (-log M)
7,B1,< 9 pEC50 (-log M)
8,YSHGTFTSDYSKYLDK([γGlu-γGlu-dpeg″-C20 diacid])KYAEEFVKWLEDEPSSGAPPPS-OH (lactam 20-24) [Compound A12],< 9 pEC50 (-log M)
9,YSHGTFTSDYSKYLDK([γGlu-γGlu-dpeg-C20 diacid])KYAQEF[Aib]SWLEDEPSSGAPPPS-OH [Compound A10],< 9 pEC50 (-log M)
10,YSHGTFTSDYSKYLDK([γGlu-γGlu-dpeg″-C20 diacid])KYAKEFVEWLEDEPSSGAPPPS-OH (lactam 20-24) [Compound A11],< 9 pEC50 (-log M)
11,YSHGTFTSDYSKYLDK([γGlu-γGlu-dpeg-C20 diacid])KYAQEFV[Aib]WLEQEPSSGAPPPS-OH [Compound A17],< 9 pEC50 (-log M)
12,YSHGTFTSDYSKYLDK([γGlu-γGlu-dpeg-C20 diacid])KYAQEFV[Aib]WLESEPSSGAPPPS-OH [Compound A19],< 9 pEC50 (-log M)
13,B2,< 9 pEC50 (-log M)
14,B3,< 9 pEC50 (-log M)
15,YSHGTFTSDYSKYLDK([γGlu-γGlu-dpeg-C20 diacid])KYAQEF[Aib]EWLEDEPSSGAPPPS-OH [Compound A8],< 9 pEC50 (-log M)
16,YSHGTFTSDYSKYLDK([γGlu-γGlu-dpeg-C20 diacid])KYAQEF[Aib]KWLEDEPSSGAPPPS-OH [Compound A9],< 9 pEC50 (-log M)
17,YSHGTFTSDYSKYLDK([γGlu-γGlu-dpeg-C20 diacid])KYAQEFV[Aib]WLEKEPSSGAPPPS-OH [Compound A20],< 9 pEC50 (-log M)
18,YSHGTFTSDYSKYLDK([γGlu-γGlu-dpeg-C20 diacid])KYAQEFV[Aib]WLE[NMeE]EPSSGAPPPS-OH [Compound A18],< 9 pEC50 (-log M)
19,YSHGTFTSDYSKYLDK([γGlu-γGlu-dpeg-C20 diacid])KYAKEFV[Aib]WLESEPSSGAPPPS-OH [Compound A22],< 9 pEC50 (-log M)
